Data from PMC12282080, “Molecular mechanism of potently neutralizing human monoclonal antibodies against severe fever with thrombocytopenia virus infection” (Journal of Virology, 2025).

Assays:
Conditions in all cases: both partners purified
[1] = molecular target: SFTSV Gn glycoprotein (G19-K452, C3 genotype) (SFTSV (Dabie bandavirus), strain SDTA1, …, UniProt A0A1S6K8S9, strain); assay: BLI
[2] = molecular target: T1, SFTSV Gn head (positions 19-337), C3 genotype (SDTA1/China) (SFTSV (Dabie bandavirus), strain SDTA1, …, UniProt A0A1S6K8S9, strain); assay: SPR
T1 construct: source: HEK293F cells (Sino Biological), purified (HisTrap, size exclusion)

[3] = molecular target: T2, SFTSV Gn head (positions 19-337), J1 genotype (KU18-5/Japan) (SFTSV (Dabie bandavirus), strain …, strain); assay: SPR
T2 construct: source: HEK293F cells (Sino Biological), purified (HisTrap, size exclusion)

[4] = molecular target: T3, SFTSV Gn head (positions 19-337), C2 genotype (P24-Vero_2021/China) (SFTSV (Dabie bandavirus), strain …, strain); assay: SPR
T3 construct: source: HEK293F cells (Sino Biological), purified (HisTrap, size exclusion)

[5] = molecular target: T4, SFTSV Gn head (as crystallised with the Fabs) (SFTSV (Dabie bandavirus), strain SDTA1, …); assay: crystal structure
T4 construct: also called Gn protein

B1: SD4 monoclonal antibody (human IgG1) (antibody, V domains shown)
VH: QVQLVESGGGVVQPGRSLRLSCAASGFPFSGYGMHWVRQAPGKGLEWVAVISYDGSEKNYADSVKGRFTISRDNSKNTLYLQMNSLRVEDTAVYYCAKDRDYYGSGFYDYWGQGTLVTVSS
VL: DIQMTQSPSSLSASVGDRVTITCQASQHISNHLNWYQQKPGTAPTLLIYEASNLETGVPSRFSGSGSGTDFSFTISSLRPEDFATYYCQQYDNFPLTFGPGTTMDIK
notes: also called mAb SD4
In the case of B1, the Kd [1] is reported as 0.096 nM, the Kd [2] is reported as 0.0827 nM and the Kd [3] is reported as 0.0628 nM. For the same binder, the Kd [4] was 0.0321 nM.

B2: SD4 Fab (Fab, V domains shown)
VH: QVQLVESGGGVVQPGRSLRLSCAASGFPFSGYGMHWVRQAPGKGLEWVAVISYDGSEKNYADSVKGRFTISRDNSKNTLYLQMNSLRVEDTAVYYCAKDRDYYGSGFYDYWGQGTLVTVSS
VL: DIQMTQSPSSLSASVGDRVTITCQASQHISNHLNWYQQKPGTAPTLLIYEASNLETGVPSRFSGSGSGTDFSFTISSLRPEDFATYYCQQYDNFPLTFGPGTTMDIK
notes: source: purified
B2: binds [5].

B3: SD4-X monoclonal antibody (human IgG1) (antibody, V domains shown)
VH: QVQLVESGGGVVQPGRSLRLSCAASGFTFSSYGMHWVRQAPGKGLEWVAVISYDGSNKYYADSVKGRFTISRDNSKNTLYLQMNSLRAEDTAVYYCAKDRDYYGSGFFDYWGQGTLVTVSS
VL: DIQMTQSPSSLSASVGDRVTITCQASQDISNHLNWYQEKPGKVPKLLIYEASNVETGVPSRFSGSGSGTDFTFTISSLQPEDIATYYCQQYDNLPYTFGQGTKLEIK
B3: binds [1].

B4: SD4-S monoclonal antibody (human IgG1) (antibody, V domains shown)
VH: QVQLVESGGGVLQPGRSLRLSCAASGFTFSGYGMHWVRQAPGKGLEWVAVISYDGSEKNYGDSVKGRFTISRDNSKNTLYLQINSLRTEDRAVYYCAKDRDYFGSGFFDYWGQGTLVTVSS
VL: DIQMTQSPSSLSASVGDRVTITCQASQDITKYLNWYQQKPGKAPKLLIFEASNLETGVPSRFSGSGSGTDFTFTISSLQPEDFATYYCQQYGDFPLTFGGGTKVEIK
B4: binds [1].

B5: SD22 monoclonal antibody (human IgG1) (antibody, V domains shown)
VH: QVQLVESGGGVVQPGRSLRLSCAASGFTFSGFGMHWVRQAPGKGLEWVALISYDGSDTYYSDSVKGRFTISRDNSKNTLYLQLKSLRPDDTAVYYCVGDRDYFGSGFFDHWGQGTLVTVSS
VL: DIQMTQSPSSLSASIGDRVTITCRASRHITNHLNWYQHKPGRAPKLLIYEASNLQAGVPSRFSGSGSGTDFTFTISSLQPEDFATYYCQQYDNLPPAFGGGTKVDIK
notes: IgG1; germline IGHV3-30; also called mAb SD22
In the case of B5, the Kd [2] is reported as 0.0542 nM, the Kd [3] is reported as 0.0557 nM and the Kd [4] is reported as 0.0515 nM.

B6: SD22 Fab (Fab, V domains shown)
VH: QVQLVESGGGVVQPGRSLRLSCAASGFTFSGFGMHWVRQAPGKGLEWVALISYDGSDTYYSDSVKGRFTISRDNSKNTLYLQLKSLRPDDTAVYYCVGDRDYFGSGFFDHWGQGTLVTVSS
VL: DIQMTQSPSSLSASIGDRVTITCRASRHITNHLNWYQHKPGRAPKLLIYEASNLQAGVPSRFSGSGSGTDFTFTISSLQPEDFATYYCQQYDNLPPAFGGGTKVDIK
notes: source: purified
B6: binds [5].

B7: SD12 monoclonal antibody (human IgG1) (antibody, V domains shown)
VH: EVQLLESGGGLVQPGGSLRLSCAASGFIFSSYAMSWVRQAPGKGLEWVSAISGSGGSTYYADSVKGRFTISRDNSKNTLYLQMNSLRDEDTAVYYCAKDRSYVSSGFFDDWGQGTLVTVSS
VL: DIQMTQSPSSLSASVGDRVTITCQASQDISNYLNWYQQRPGKAPKLLIFEASNLETGVPSRFSGSGSGTDFTFTISSLQPEDIATYYCQQYENLLYTFGQGTKLEIK
notes: IgG1; also called mAb SD12
Work on B7 yielded a Kd [2] of 87.8 nM, a Kd [3] of 60.2 nM and a Kd [4] of 74.1 nM.

B8: SD12 Fab (Fab, V domains shown)
VH: EVQLLESGGGLVQPGGSLRLSCAASGFIFSSYAMSWVRQAPGKGLEWVSAISGSGGSTYYADSVKGRFTISRDNSKNTLYLQMNSLRDEDTAVYYCAKDRSYVSSGFFDDWGQGTLVTVSS
VL: DIQMTQSPSSLSASVGDRVTITCQASQDISNYLNWYQQRPGKAPKLLIFEASNLETGVPSRFSGSGSGTDFTFTISSLQPEDIATYYCQQYENLLYTFGQGTKLEIK
notes: source: purified
B8: binds [5].
